From article PMC11784390, “Conformational changes in and translocation of small proteins: insights into the ejection mechanism of podophages” (Journal of Virology, 2024)

Columns and labels:
[1] = target: the molecule itself; experiment: cryo-EM structure; DNA-ejected T7: purified mature T7 incubated with rough LPS (250 µg/mL) at 37°C for 3 h; entire particle asymmetric 8.2 Å; portal–tail complex 3.5 Å (six-fold)
[2] = target: the molecule itself; experiment: cryo-EM structure; mature T7 virions, in situ; entire particle asymmetric 6.1 Å; local reconstructions of core complex 3 Å (four-fold), portal 2.5 Å (twelve-fold), portal–tail complex 2.7 Å (six-fold)

Protein	stoichiometry N [1]	stoichiometry N [2]
nozzle protein gp12 (natural protein, bacteriophage T7, UniProt P03747 1-794, looked up, nozzle protein gp12 of bacteriophage T7, as it stands in the virion; Native virion protein; also called tail nozzle; source: T7 virions propagated in E. coli, purified (PEG precipitation, CsCl ultracentrifugation)) MALISQSIKNLKGGISQQPDILRYPDQGSRQVNGWSSETEGLQKRPPLVFLNTLGDNGALGQAPYIHLINRDEHEQYYAVFTGSGIRVFDLSGNEKQVRYPNGSNYIKTANPRNDLRMVTVADYTFIVNRNVVAQKNTKSVNLPNYNPNQDGLINVRGGQYGRELIVHINGKDVAKYKIPDGSQPEHVNNTDAQWLAEELAKQMRTNLSDWTVNVGQGFIHVTAPSGQQIDSFTTKDGYADQLINPVTHYAQSFSKLPPNAPNGYMVKIVGDASKSADQYYVRYDAERKVWTETLGWNTEDQVLWETMPHALVRAADGNFDFKWLEWSPKSCGDVDTNPWPSFVGSSINDVFFFRNRLGFLSGENIILSRTAKYFNFYPASIANLSDDDPIDVAVSTNRIAILKYAVPFSEELLIWSDEAQFVLTASGTLTSKSVELNLTTQFDVQDRARPFGIGRNVYFASPRSSFTSIHRYYAVQDVSSVKNAEDITSHVPNYIPNGVFSICGSGTENFCSVLSHGDPSKIFMYKFLYLNEELRQQSWSHWDFGENVQVLACQSISSDMYVILRNEFNTFLARISFTKNAIDLQGEPYRAFMDMKIRYTIPSGTYNDDTFTTSIHIPTIYGANFGRGKITVLEPDGKITVFEQPTAGWNSDPWLRLSGNLEGRMVYIGFNINFVYEFSKFLIKQTADDGSTSTEDIGRLQLRRAWVNYENSGTFDIYVENQSSNWKYTMAGARLGSNTLRAGRLNLGTGQYRFPVVGNAKFNTVYILSDETTPLNIIGCGWEGNYLRRSSGI	6	–
portal protein gp8 (natural protein, bacteriophage T7, UniProt P03728 1-536, looked up, portal protein gp8 of bacteriophage T7, as it stands in the virion; Native virion protein; also called dodecameric portal; source: T7 virions propagated in E. coli, purified (PEG precipitation, CsCl ultracentrifugation); copies: 12) MAEKRTGLAEDGAKSVYERLKNDRAPYETRAQNCAQYTIPSLFPKDSDNASTDYQTPWQAVGARGLNNLASKLMLALFPMQTWMRLTISEYEAKQLLSDPDGLAKVDEGLSMVERIIMNYIESNSYRVTLFEALKQLVVAGNVLLYLPEPEGSNYNPMKLYRLSSYVVQRDAFGNVLQMVTRDQIAFGALPEDIRKAVEGQGGEKKADETIDVYTHIYLDEDSGEYLRYEEVEGMEVQGSDGTYPKEACPYIPIRMVRLDGESYGRSYIEEYLGDLRSLENLQEAIVKMSMISSKVIGLVNPAGITQPRRLTKAQTGDFVTGRPEDISFLQLEKQADFTVAKAVSDAIEARLSFAFMLNSAVQRTGERVTAEEIRYVASELEDTLGGVYSILSQELQLPLVRVLLKQLQATQQIPELPKEAVEPTISTGLEAIGRGQDLDKLERCVTAWAALAPMRDDPDINLAMIKLRIANAIGIDTSGILLTEEQKQQKMAQQSMQMGMDNGAAALAQGMAAQATASPEAMAAAADSVGLQPGI	–	12
fiber protein gp17 (natural protein, bacteriophage T7, UniProt P03748 1-553, looked up, tail fiber protein gp17 of bacteriophage T7, as it stands in the virion; Six trimeric fibers on the virion; also called tail fiber; source: T7 virions propagated in E. coli, purified (PEG precipitation, CsCl ultracentrifugation)) MANVIKTVLTYQLDGSNRDFNIPFEYLARKFVVVTLIGVDRKVLTINTDYRFATRTTISLTKAWGPADGYTTIELRRVTSTTDRLVDFTDGSILRAYDLNVAQIQTMHVAEEARDLTTDTIGVNNDGHLDARGRRIVNLANAVDDRDAVPFGQLKTMNQNSWQARNEALQFRNEAETFRNQAEGFKNESSTNATNTKQWRDETKGFRDEAKRFKNTAGQYATSAGNSASAAHQSEVNAENSATASANSAHLAEQQADRAEREADKLENYNGLAGAIDKVDGTNVYWKGNIHANGRLYMTTNGFDCGQYQQFFGGVTNRYSVMEWGDENGWLMYVQRREWTTAIGGNIQLVVNGQIITQGGAMTGQLKLQNGHVLQLESASDKAHYILSKDGNRNNWYIGRGSDNNNDCTFHSYVHGTTLTLKQDYAVVNKHFHVGQAVVATDGNIQGTKWGGKWLDAYLRDSFVAKSKAWTQVWSGSAGGGVSVTVSQDLRFRNIWIKCANNSWNFFRTGPDGIYFIASDGGWLRFQIHSNGLGFKNIADSRSVPNAIMVENE	–	3
